Laboratory results from patent publication US20120039802A1 (published 2012).

B1: 325-H05 peptide-displaying phage (SEQ ID NO: 048) (peptide)
peptide: AGSIQCKGPPWFSCAMYGT
B2: 333-C05 peptide-displaying phage (SEQ ID NO: 068) (peptide)
peptide: AGDIVCTGHPYFECWSWGT
B3: 323-A11 peptide-displaying phage (SEQ ID NO: 059) (peptide)
peptide: AGYTSCVGPPSFECTPYGT
B4: 548-F06 peptide-displaying phage (SEQ ID NO: 056) (peptide)
peptide: AGWISCAGPPTFACWPGGT
B5: 551-B02 peptide-displaying phage (SEQ ID NO: 069) (peptide)
peptide: AGTWHCAGPPWFTCYMDGT
B6: 545-E08 peptide-displaying phage (SEQ ID NO: 047) (peptide)
peptide: GDGFLCRWENGWCEFWDP
B7: 330-C01 peptide-displaying phage (SEQ ID NO: 065) (peptide)
peptide: AGDWHCQGPPAFMCWMIGT
B8: 548-E08 peptide-displaying phage (SEQ ID NO: 063) (peptide)
peptide: AGETTCLGWPTFVCVDYGT
B9: 545-A09 peptide-displaying phage (SEQ ID NO: 066) (peptide)
peptide: AGLPKCSGPPWFSCYYGGT
B10: 550-C09 peptide-displaying phage (SEQ ID NO: 062) (peptide)
peptide: AGHYWCAGPPTFICMGPGT
B11: 332-A05 peptide-displaying phage (SEQ ID NO: 064) (peptide)
peptide: AGHGTCRGWPTFECIYFGT
B12: 330-B07 peptide-displaying phage (SEQ ID NO: 053) (peptide)
peptide: AGSFACKGPPTFACVEFGT
B13: 330-G09 peptide-displaying phage (SEQ ID NO: 071) (peptide)
peptide: AGHWICVGPPTFSCQWHGT
B14: 551-G12 peptide-displaying phage (SEQ ID NO: 070) (peptide)
peptide: AGSWECTGPPSFHCQWYGT
B15: 452-F01 peptide-displaying phage (SEQ ID NO: 006) (peptide)
peptide: GSEYSCRTSRCIFSAP
B16: 571-C05 peptide-displaying phage (SEQ ID NO: 001) (peptide)
peptide: GSWIICWWDNCGSSAP
B17: 334-G06 peptide-displaying phage (SEQ ID NO: 052) (peptide)
peptide: AGWTHCIGPPTFECIPMGT
B18: 334-C08 peptide-displaying phage (SEQ ID NO: 067) (peptide)
peptide: AGGWECTGPPWFQCGYYGT
B19: 336-G04 peptide-displaying phage (SEQ ID NO: 051) (peptide)
peptide: AGWFQCKGPPSFECERHGT
B20: 547-H07 peptide-displaying phage (SEQ ID NO: 058) (peptide)
peptide: AGDWICHGPPMFECEWVGT
B21: 329-D02 peptide-displaying phage (SEQ ID NO: 061) (peptide)
peptide: AGHAWCSGPPRFECWPPGT
B22: 333-F09 peptide-displaying phage (SEQ ID NO: 050) (peptide)
peptide: AGQFKCAGPPSFACWMTGT
B23: 335-D11 peptide-displaying phage (SEQ ID NO: 074) (peptide)
peptide: AGSIQCVGPPSFECTPYGT
B24: 330-F05 peptide-displaying phage (SEQ ID NO: 049) (peptide)
peptide: AGYYGCKGPPTFECQWMGT
B25: 331-F01 peptide-displaying phage (SEQ ID NO: 072) (peptide)
peptide: AGEWWCHGPPEFLCYWTGT
B26: 569-C03 peptide-displaying phage (SEQ ID NO: 007) (peptide)
peptide: GSFILCWWTFCDTNAP
B27: 330-C10 peptide-displaying phage (SEQ ID NO: 054) (peptide)
peptide: AGNYFCAGSPSFSCYFMGT
B28: 538-F08 peptide-displaying phage (SEQ ID NO: 057) (peptide)
peptide: AGFVNCKGPPTFECILTGT
B29: 336-D07 peptide-displaying phage (SEQ ID NO: 075) (peptide)
peptide: AGYSVCKGYPSFECAFFGT
B30: 331-G04 peptide-displaying phage (SEQ ID NO: 055) (peptide)
peptide: AGSWHCAGPPSFECWEFGT
B31: 333-H03 peptide-displaying phage (SEQ ID NO: 060) (peptide)
peptide: AGYFECKGPPTFECWLSGT

molecular target: T1, cMet-Fc fusion protein (extracellular domain of the cMet receptor expressed as an Fc-fusion protein) (human, UniProt P08581 25-932); test: phage ELISA, cMet-Fc vs TRAIL-Fc
T1 construct: extracellular domain; also called soluble cMet-Fc-fusion protein; soluble cMet receptor; not shown: Fc part
T1 sequence (P08581 25-932): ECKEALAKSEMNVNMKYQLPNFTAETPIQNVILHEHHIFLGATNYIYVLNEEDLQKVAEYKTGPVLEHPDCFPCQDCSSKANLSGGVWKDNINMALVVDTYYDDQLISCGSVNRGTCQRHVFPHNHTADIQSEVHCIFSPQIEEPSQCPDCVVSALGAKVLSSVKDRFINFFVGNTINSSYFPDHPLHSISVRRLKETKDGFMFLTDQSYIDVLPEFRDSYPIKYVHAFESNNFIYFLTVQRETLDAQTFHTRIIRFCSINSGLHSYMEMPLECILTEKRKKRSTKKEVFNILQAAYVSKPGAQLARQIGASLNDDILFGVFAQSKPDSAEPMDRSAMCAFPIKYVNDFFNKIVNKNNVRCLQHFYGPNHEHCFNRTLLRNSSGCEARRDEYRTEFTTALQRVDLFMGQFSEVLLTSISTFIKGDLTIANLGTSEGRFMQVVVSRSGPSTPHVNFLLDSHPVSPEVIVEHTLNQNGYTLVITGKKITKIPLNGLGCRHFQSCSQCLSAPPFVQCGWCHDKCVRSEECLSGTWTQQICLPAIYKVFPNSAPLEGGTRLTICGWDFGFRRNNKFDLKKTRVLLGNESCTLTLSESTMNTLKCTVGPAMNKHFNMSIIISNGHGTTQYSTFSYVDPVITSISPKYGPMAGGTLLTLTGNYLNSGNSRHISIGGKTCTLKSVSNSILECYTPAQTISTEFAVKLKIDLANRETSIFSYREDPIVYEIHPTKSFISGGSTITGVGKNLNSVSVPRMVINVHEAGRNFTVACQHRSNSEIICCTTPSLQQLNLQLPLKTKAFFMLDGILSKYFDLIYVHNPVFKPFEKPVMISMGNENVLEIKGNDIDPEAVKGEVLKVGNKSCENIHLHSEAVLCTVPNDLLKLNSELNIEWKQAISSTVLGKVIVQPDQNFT
Description: Protein phage ELISAs using peptide-displaying phage isolates from the various selection campaigns were performed to determine specificity of the peptides for cMet versus an unrelated Fc-fusion protein (TRAIL-Fe). Briefly, 384-well plates were coated overnight at 4 C with 0.5 μg/mL of cMet-Fc fusion protein or TRAIL-Fc fusion protein (background). The plates were blocked for 2 hours 37 C with 3% (w/v) BSA in PBS containing 0.05% (v/v) Tween-20 (PBST). The plates were washed with PBST and 100 μL of peptide-displaying phage were added to each well. The plates were incubated for 2 hours at room temperature and washed with PBST. cMet-binding peptide-displaying phage were detected using an HRP-conjugated anti-M13 antibody.

| Binder | Protein ELISA (fold over background) |
| --- | --- |
| B1 | 15.9 fold |
| B2 | 6.3 fold |
| B3 | 21.2 fold |
| B4 | 14.3 fold |
| B5 | 9 fold |
| B6 | 4.7 fold |
| B7 | 4.7 fold |
| B8 | 5.3 fold |
| B9 | 13.5 fold |
| B10 | 10.2 fold |
| B11 | 6 fold |
| B12 | 18.1 fold |
| B13 | 13.5 fold |
| B14 | 3.9 fold |
| B15 | 3.2 fold |
| B16 | 4.9 fold |

| Binder | Protein ELISA (fold over background) |
| --- | --- |
| B17 | 8 fold |
| B18 | 8 fold |
| B19 | 5.4 fold |
| B20 | 15.9 fold |
| B21 | 3.2 fold |
| B22 | 14.8 fold |
| B23 | 6.7 fold |
| B24 | 13.8 fold |
| B25 | 12.6 fold |
| B26 | 3.4 fold |
| B27 | 13.4 fold |
| B28 | 12.3 fold |
| B29 | 5.8 fold |
| B30 | 18.3 fold |
| B31 | 8.1 fold |

molecular target: T2, human cMet expressed on 3T3 cells (human, UniProt P08581 25-1390); test: whole cell phage ELISA, 3T3 human cMet vs 3T3
T2 construct: whole, on cells; cells fixed with glutaraldehyde; also called cell surface-expressed human cMet; 3T3 cells that over-express human cMet
T2 sequence (P08581 25-1390): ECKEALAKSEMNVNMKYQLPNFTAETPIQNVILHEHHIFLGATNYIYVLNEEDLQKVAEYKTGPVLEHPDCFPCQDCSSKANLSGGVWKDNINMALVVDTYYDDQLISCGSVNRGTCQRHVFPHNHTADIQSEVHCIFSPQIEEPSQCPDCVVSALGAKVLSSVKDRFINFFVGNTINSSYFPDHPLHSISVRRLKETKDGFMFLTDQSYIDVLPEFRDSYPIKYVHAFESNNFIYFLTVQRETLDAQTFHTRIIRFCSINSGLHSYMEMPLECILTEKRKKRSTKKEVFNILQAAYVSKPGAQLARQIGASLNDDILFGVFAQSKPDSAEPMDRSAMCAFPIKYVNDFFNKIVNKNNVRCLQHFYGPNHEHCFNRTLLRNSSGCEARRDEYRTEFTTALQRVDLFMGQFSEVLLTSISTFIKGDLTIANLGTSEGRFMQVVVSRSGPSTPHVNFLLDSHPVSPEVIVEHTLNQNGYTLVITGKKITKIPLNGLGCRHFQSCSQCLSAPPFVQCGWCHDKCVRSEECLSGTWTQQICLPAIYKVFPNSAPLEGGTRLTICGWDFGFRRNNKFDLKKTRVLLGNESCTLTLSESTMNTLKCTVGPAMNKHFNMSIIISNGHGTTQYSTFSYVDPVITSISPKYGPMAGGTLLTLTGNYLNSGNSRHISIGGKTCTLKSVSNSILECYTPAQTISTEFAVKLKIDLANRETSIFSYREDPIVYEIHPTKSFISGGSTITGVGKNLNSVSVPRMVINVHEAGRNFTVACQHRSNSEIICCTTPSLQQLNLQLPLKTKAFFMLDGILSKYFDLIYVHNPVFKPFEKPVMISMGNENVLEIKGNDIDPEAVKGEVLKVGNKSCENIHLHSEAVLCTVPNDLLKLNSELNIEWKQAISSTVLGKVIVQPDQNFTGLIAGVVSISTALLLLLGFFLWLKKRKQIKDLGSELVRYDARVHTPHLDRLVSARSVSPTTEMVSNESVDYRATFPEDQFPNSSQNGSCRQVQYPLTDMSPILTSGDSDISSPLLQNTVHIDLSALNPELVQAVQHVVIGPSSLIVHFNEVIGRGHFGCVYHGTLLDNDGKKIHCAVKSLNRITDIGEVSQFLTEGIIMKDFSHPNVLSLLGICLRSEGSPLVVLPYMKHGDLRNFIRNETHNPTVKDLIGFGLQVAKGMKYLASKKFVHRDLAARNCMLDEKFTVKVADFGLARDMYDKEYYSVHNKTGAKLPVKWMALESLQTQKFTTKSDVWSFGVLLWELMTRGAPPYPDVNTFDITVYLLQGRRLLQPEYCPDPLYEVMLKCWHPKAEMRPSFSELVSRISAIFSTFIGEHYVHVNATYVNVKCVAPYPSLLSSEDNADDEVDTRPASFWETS
Description: Whole cell ELISAs were performed using 3T3 cells that over-express human cMet. […] Briefly, 96-well plates were seeded with 10⁵ cells per well. The plates were centrifuged for 5 minutes at 1600 rpm to pellet the cells. The resulting cell layer was fixed with 0.1% (v/v) glutaraldehyde for 12 minutes at 37 C. […] Peptide-displaying phage also were blocked in the above solution for 1 hour at 37 C. 100 μL of blocked phage was then added to each well and the plates were incubated for 1 hour at room temperature. The plates were washed with PBST. cMet-binding peptide-displaying phage were detected using an HRP-conjugated anti-M13 antibody.

| Binder | WC ELISA (fold over background) |
| --- | --- |
| B1 | 1.47 fold |
| B2 | 1.33 fold |
| B3 | 1.43 fold |
| B4 | 1.23 fold |
| B5 | 1.3 fold |
| B6 | 1.3 fold |
| B7 | 1.3 fold |
| B8 | 1.27 fold |
| B9 | 1.3 fold |
| B10 | 1.4 fold |
| B11 | 1.4 fold |
| B12 | 1.27 fold |
| B13 | 1.4 fold |
| B14 | 1.37 fold |
| B15 | 1.33 fold |
| B16 | 1.3 fold |

| Binder | WC ELISA (fold over background) |
| --- | --- |
| B17 | 1.3 fold |
| B18 | 1.47 fold |
| B19 | 1.33 fold |
| B20 | 1.17 fold |
| B21 | 1.27 fold |
| B22 | 1.43 fold |
| B23 | 1.37 fold |
| B24 | 1.33 fold |
| B25 | 1.47 fold |
| B26 | 1.3 fold |
| B27 | 1.33 fold |
| B28 | 1.23 fold |
| B29 | 1.33 fold |
| B30 | 1.47 fold |
| B31 | 1.43 fold |

molecular target: T1, cMet-Fc fusion protein (extracellular …); test: phage ELISA on cMet-Fc, competitor HGF 100 ng/mL
Description: (§1) These assays were conducted using the peptide-displaying phage discovered from the initial selection and screening campaigns using the first generation peptide libraries. Briefly, 96-well plates were coated overnight at 4 C with 0.5 μg/mL of cMet-Fc fusion protein or TRAIL-Fc fusion protein (background). The plates were blocked for 2 hours at 37 C with 3% BSA in PBST. […] This was followed by an addition of 30 μL of peptide-displaying phage overnight culture to each well. The plates were incubated for 2 hours at room temperature, washed with PBST and cMet-binding peptide-displaying phage was detected using an HRP-conjugated anti-M13 antibody.

| Binder | % of binding in the absence of HGF |
| --- | --- |
| B1 | 41% |
| B2 | 83% |
| B3 | 41% |
| B4 | 76% |
| B5 | 69% |
| B6 | 81% |
| B7 | 58% |
| B8 | 102% |
| B9 | 44% |
| B10 | 25% |
| B11 | 40% |
| B12 | 58% |
| B13 | 42% |
| B14 | 88% |
| B15 | 117% |
| B16 | 102% |

| Binder | % of binding in the absence of HGF |
| --- | --- |
| B17 | 56% |
| B18 | 70% |
| B19 | 46% |
| B20 | 60% |
| B21 | 53% |
| B22 | 52% |
| B23 | 56% |
| B24 | 51% |
| B25 | 77% |
| B26 | 95% |
| B27 | 48% |
| B28 | 55% |
| B29 | 44% |
| B30 | 56% |
| B31 | 55% |

molecular target: T1, cMet-Fc fusion protein (extracellular …); test: phage ELISA on cMet-Fc, competitor HGF 500 ng/mL
Description: as §1

| Binder | % of binding in the absence of HGF |
| --- | --- |
| B1 | 32% |
| B2 | 66% |
| B3 | 18% |
| B4 | 18% |
| B5 | 43% |
| B6 | 57% |
| B7 | 43% |
| B8 | 50% |
| B9 | 22% |
| B10 | 25% |
| B11 | 21% |
| B12 | 40% |
| B13 | 26% |
| B14 | 46% |
| B15 | 110% |
| B16 | 74% |

| Binder | % of binding in the absence of HGF |
| --- | --- |
| B17 | 43% |
| B18 | 57% |
| B19 | 23% |
| B20 | 45% |
| B21 | 31% |
| B22 | 32% |
| B23 | 37% |
| B24 | 27% |
| B25 | 73% |
| B26 | 89% |
| B27 | 25% |
| B28 | 43% |
| B29 | 37% |
| B30 | 36% |
| B31 | 37% |
